Test results reported in patent publication US20050009182.

Molecular target: T1, phiC31 integrase (Streptomyces phage phiC31) (UniProt Q9T221)
T1 sequence: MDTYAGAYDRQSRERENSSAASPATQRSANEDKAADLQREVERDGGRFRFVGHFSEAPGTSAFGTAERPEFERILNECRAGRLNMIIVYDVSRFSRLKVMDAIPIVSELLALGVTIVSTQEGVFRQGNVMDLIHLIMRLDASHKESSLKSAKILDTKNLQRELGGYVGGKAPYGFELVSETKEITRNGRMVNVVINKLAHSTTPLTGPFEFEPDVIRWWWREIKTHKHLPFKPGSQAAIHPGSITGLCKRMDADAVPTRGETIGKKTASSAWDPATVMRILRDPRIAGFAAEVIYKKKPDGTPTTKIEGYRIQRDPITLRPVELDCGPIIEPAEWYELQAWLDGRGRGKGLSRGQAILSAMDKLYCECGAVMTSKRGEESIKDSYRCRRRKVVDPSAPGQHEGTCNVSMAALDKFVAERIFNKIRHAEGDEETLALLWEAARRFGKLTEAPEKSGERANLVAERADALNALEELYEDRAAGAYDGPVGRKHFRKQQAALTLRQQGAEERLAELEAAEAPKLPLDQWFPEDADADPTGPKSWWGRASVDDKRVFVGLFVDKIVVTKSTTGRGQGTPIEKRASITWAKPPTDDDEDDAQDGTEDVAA
Assay: cell_activity

Substance | activity (Ura+ transformants per 10^7 cells) (S. pombe FY527attPx2, circular pLT50 plus pLT43, 63 without integrase) | activity (Ura+ transformants per 10^7 cells) (S. pombe FY527attPx2, linear attB-ura4-attB plus pLT43, 19 without integrase)
phiC31 attB (500 bp BamHI-XbaI fragment of pHS21) | 2560 | 
phiC31 attP 84 bp (ApaI-SacI fragment of pHS282) |  | 1570
